In article PMC2857095:

Substrate: Nc1ncnc2c1ncn2[C@@H]1O[C@H](COP(=O)(O)OP(=O)(O)OP(=O)(O)O)[C@@H](O)[C@H]1O
Experiment: purified protein
Conditions: no DNA, 100 mM MgCl2

B1: MutS (Escherichia coli K-12) (protein)
chain: MSAIENFDAHTPMMQQYLRLKAQHPEILLFYRMGDFYELFYDDAKRASQLLDISLTKRGASAGEPIPMAGIPYHAVENYLAKLVNQGESVAICEQIGDPATSKGPVERKVVRIVTPGTISDEALLQERQDNLLAAIWQDSKGFGYATLDISSGRFRLSEPADRETMAAELQRTNPAELLYAEDFAEMSLIEGRRGLRRRPLWEFEIDTARQQLNLQFGTRDLVGFGVENAPRGLCAAGCLLQYAKDTQRTTLPHIRSITMEREQDSIIMDAATRRNLEITQNLAGGAENTLASVLDCTVTPMGSRMLKRWLHMPVRDTRVLLERQQTIGALQDFTAGLQPVLRQVGDLERILARLALRTARPRDLARMRHAFQQLPELRAQLETVDSAPVQALREKMGEFAELRDLLERAIIDTPPVLVRDGGVIASGYNEELDEWRALADGATDYLERLEVRERERTGLDTLKVGFNAVHGYYIQISRGQSHLAPINYMRRQTLKNAERYIIPELKEYEDKVLTSKGKALALEKQLYEELFDLLLPHLEALQQSASALAELDVLVNLAERAYTLNYTCPTFIDKPGIRITEGRHPVVEQVLNEPFIANPLNLSPQRRMLIITGPNMGGKSTYMRQTALIALMAYIGSYVPAQKVEIGPIDRIFTRVGAADDLASGRSTFMVEMTETANILHNATEYSLVLMDEIGRGTSTYDGLSLAWACAENLANKIKALTLFATHYFELTQLPEKMEGVANVHLDALEHGDTIAFMHSVQDGAASKSYGLAVAALAGVPKEVIKRARQKLRELESISPNAAATQVDGTQMSLLSVPEETSPAVEALENLDPDSLTPRQALEWIYRLKSLV
Which results are given for B1?
Km (low affinity site): 6.8 ± 0.6 µM; kcat (low affinity site): 0.0317 ± 0.00067 s⁻¹

B2: MutS (Escherichia coli K-12; D693N) (protein)
chain: MSAIENFDAHTPMMQQYLRLKAQHPEILLFYRMGDFYELFYDDAKRASQLLDISLTKRGASAGEPIPMAGIPYHAVENYLAKLVNQGESVAICEQIGDPATSKGPVERKVVRIVTPGTISDEALLQERQDNLLAAIWQDSKGFGYATLDISSGRFRLSEPADRETMAAELQRTNPAELLYAEDFAEMSLIEGRRGLRRRPLWEFEIDTARQQLNLQFGTRDLVGFGVENAPRGLCAAGCLLQYAKDTQRTTLPHIRSITMEREQDSIIMDAATRRNLEITQNLAGGAENTLASVLDCTVTPMGSRMLKRWLHMPVRDTRVLLERQQTIGALQDFTAGLQPVLRQVGDLERILARLALRTARPRDLARMRHAFQQLPELRAQLETVDSAPVQALREKMGEFAELRDLLERAIIDTPPVLVRDGGVIASGYNEELDEWRALADGATDYLERLEVRERERTGLDTLKVGFNAVHGYYIQISRGQSHLAPINYMRRQTLKNAERYIIPELKEYEDKVLTSKGKALALEKQLYEELFDLLLPHLEALQQSASALAELDVLVNLAERAYTLNYTCPTFIDKPGIRITEGRHPVVEQVLNEPFIANPLNLSPQRRMLIITGPNMGGKSTYMRQTALIALMAYIGSYVPAQKVEIGPIDRIFTRVGAADDLASGRSTFMVEMTETANILHNATEYSLVLMNEIGRGTSTYDGLSLAWACAENLANKIKALTLFATHYFELTQLPEKMEGVANVHLDALEHGDTIAFMHSVQDGAASKSYGLAVAALAGVPKEVIKRARQKLRELESISPNAAATQVDGTQMSLLSVPEETSPAVEALENLDPDSLTPRQALEWIYRLKSLV
Which Km (kcat unit not printed beside value) does the source give for B2 here?
The Km was 34 µM.
